Assay results: the nanobody polyreactivity screen of Harvey et al. (2022)

Assay: yeast display, Sf9 membrane polyspecificity reagent, FACS + sequencing; frameworks hold sequencing errors
Summary of the method: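 Galactose-induced (36–48 hours) yeast carrying a synthetic nanobody display library were exposed to 10% biotinylated, detergent-solubilized Sf9 membrane reagent at 4 °C for 1 hour. FACS followed streptavidin microbead enrichment, using low and high (top ~1%) gates for expression (anti-HA) and reagent binding (streptavidin). Colony PCR, MiSeq 2 × 250 sequencing and CDR-length filtering followed. Labels for polyreactivity reflect the gate of origin.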

QVQLVESGGGLVQAGGSLRLSCAASGSIFYIYAMGWYRQAPGKEREFVAAISWIGGSTYYADSVKGRFTISRDNAKNTVYLQMNSLKPEDTAVYYCAAETFTDYDYWGQGTQVTVSS
polyreactivity (PSR sort gate): high polyreactivity

QGQLEESVGGLVQAGGSLRLSCAASGRIFRYYAMGLYRQAPGKERELVAAIRSGGSTNYADSVKGRFTISRDNAKNTVYLQMKSLKPEDTAVYYCNARYRYFKGGYWGQGTQVTVSS
polyreactivity (PSR sort gate): high polyreactivity

QVQLVESGGGLVQAGGSLRLTCAASGRIFYNYAMGWYRQAPGKERELLAAISGSGGSTYYADSVKGRFTISRDNAKNSVYLQMNSLKPEDTAVYYCSTSCPQYYSRNFDYWGQGTQVTVSS
polyreactivity (PSR sort gate): low polyreactivity

QDQLVESGGGLVQAGGSLRLSCAASGSIFIQYAMGWYRQAPGKERQFVAAITSGGGSTYYADSVKGRFTISRDNAMNTVYLQLNSLKPEDTAVYYCAVDRTRRPALPFVTLDRGYWGQGTQVTVSS
polyreactivity (PSR sort gate): low polyreactivity

QVQLVESGGGLVQAGGSLRLSCAASGRTFFWYVMGWYRQAPGKERELVATISYGGITYYADSVKGRFTISRDNAKNTVYLQMNSLKPEETALYYCAAKPSRSLYYYWGQGTQVTVSS
polyreactivity (PSR sort gate): high polyreactivity

QVQLVESGGGLVQAGGSIRLSCAASGITFYKYAMGWYRQAPGKERELVAAISGNGGSTYYADSVKGRFTISRDYAKNTVYLQMNSLKPEDTAVYFCNRGYRRTDNYWGQGTQVTVSS
polyreactivity (PSR sort gate): high polyreactivity

QVQLVESGGGLVQAGGSLRLSCAASGSTSDLYAMGWYRQAPGKERELVAAITWSGDSTYYADSVKGRFTISRDNAKNTVYLQMNSLKPEDTAVYYCNAEYYDYFDYESDYWGQGTQVTVSS
polyreactivity (PSR sort gate): low polyreactivity

QVQLVESGGGLVQAGGSLRLSCAASGFTIAYNAMGWYRQAPGKERDLVAAISSSGGRTYYADSVKGRFTISRDNAKNTVYFQMNSLKPEDTAVYYCATRPKVAYEYVYWGQGTQVTVSS
polyreactivity (PSR sort gate): high polyreactivity

QVQLVESGGGLVQAGGSLRLSCAASGRTFLYVMGWNIQAPGKERELVAASSRGGSTSYADSVKGRFTISRDNAKNTVYLQMNSMKPEVTAVYYCAATNYWRDGYWGQGTQVTVSS
polyreactivity (PSR sort gate): high polyreactivity

QVQLVESGGGLVQAGGSLRLSCAASGSTFSRYAMGWYRQAPGKERELVAAISWSGGRTNYADSVKGRFTISRDNAKNTVYLQMNSLKPEDTAVYYCNAPFRHRYRVDYWGQGTQVTVSS
polyreactivity (PSR sort gate): high polyreactivity

QDQHVESGGGLVQAGGSLRLSCAASGSTFGDNAMGWYRQAPGKERELVAAISRGGRTYYADSVKGRFTISRDNAKNTVYLQMNSLKPEDTAVYYCAATSAYRGYWVLRGLSYDYWGQGTQVTVSS
polyreactivity (PSR sort gate): high polyreactivity

QVELVESGGGLVQAGGSLRLSCAASGRIFSPNAMGWYRQAPGKERELVAALTGSGGTTYYADSVKGRFKISRDNAKNTVYLQMNSLKREDTAVYYCAADLYPFSRNPRYQFLYNYWGQGTQVTVSS
polyreactivity (PSR sort gate): low polyreactivity

QVQLVESGGGLVKAGGSLRLSCAASGRTFGYNAMGWYRQAPGKEREFVAAISWSGGRTYYADSVKGRFTISRDNAKNTVYLQMNSLKPEDTAVYYCAAAAPHLSAKMDYWGQGTQVTVSS
polyreactivity (PSR sort gate): low polyreactivity

QVQLVESGGVLVQAGGSLRLSCAASGRTLRWYAKGWYRPAPGKERELVAAINWSGTSTYYADSVKGRFTISRDNAKNTVYLQMNSLKPEDTAVYYCAKRVTWNYDWGQGTQVTVSS
polyreactivity (PSR sort gate): high polyreactivity

QVQLVESGGGLVQAGGSLRLSCAASGSIFERYAMGWYRQAPGKERELVAGISTDGSTYADSVKGRFTISRDNAKNTVYLQMNSLKPEDTAVYYCNKRRGFSAWYDYWGQGTQVTVSS
polyreactivity (PSR sort gate): low polyreactivity

QVQLVESGGGLVQAGGSLRLSCAASGRIFATNAMGWYRQAPGKERELVAGIRRSGARTYYADSVKGRFTISRDNAKNTVYLQMYSLKPEDTAVYYCNASLFIEIYSFQYDDHFAEYGYWGQGTQVTVSS
polyreactivity (PSR sort gate): high polyreactivity

EVQLVESGGGLVQAGGSLRLSCAASGRTIGFNGMAWYRQAPGKERELFAAITRSGGNTYADSVKGRFTISRDNAKNTVYLQMNSLNPEDSAVYYCATTYVGETLTGPGDYWGQGTQVTVSS
polyreactivity (PSR sort gate): low polyreactivity

QVQLVESGGGLVQAGGSLRLSCAASGSTFGNNAMGWYRQAPGKERELVATIDDTTVSTNYADSVKGRFTISRDNAKNTVYLQMNSLKPEDTAVYYCAADDVDGSPYDYWGQGTQVTVSS
polyreactivity (PSR sort gate): low polyreactivity

QVQLVESGGVLVQAGGSLRLSCAASGRIFGENAMGWYRQAPGKEREFVAVISISDASTYYADSVKGRFTISRDNAKNTVYLQMNSLKPEDTAVYYCADDLTDFLYVASDYWGQGTQVTVSS
polyreactivity (PSR sort gate): low polyreactivity

QVQLVESGGGLVQAGGSLRLSCAASGRTFGEYAMGWYRQAPGKERELVAAISSAGSTYYADSVKGRFTISRDNAKNTVYLQMNSLKPEDTAVYYCAASRKYGYGYWGQGTQVTVSS
polyreactivity (PSR sort gate): high polyreactivity

QVQLVESGGGLVQAGGRLRLSCAASGTTFVYYAMGWYRQAPGKERELVAAITASGGRTYYADSVKGRFTISRDNSKNTVYLEMNSLKPDDTAVYYCNARARKSIRVGGYNYWGQGSQVTVSS
polyreactivity (PSR sort gate): high polyreactivity

QVHLVESGGGLVQAGGSLRLSCAASGRTLYDYAMEWYRQAPAKERELVAGITSGDSTYYADSVKGRFTISRDNAKNTVYLQMNSLKPEDTAVYYCAADSDTFYYTGYDYDYWGQGTQVTVSS
polyreactivity (PSR sort gate): low polyreactivity

QVQLVESGGGLVQAGGSLRLSCAASGRIFYVYAMGWYIKAPGKERELVAAITSSGGRTNYADSVKGRFTISRDNAKNTVYLQMNSLKPEDTAVYYCAAAYPWGDYGVSDYDYWGQGTQVTVSS
polyreactivity (PSR sort gate): low polyreactivity

QVQLVESGGGLVQAGGSLRLSCAASGSNYYWYAMVWSRQAPGKEMELVADITTSDGRTYYADSVKGRFTISRDNAKNTVYFLMNSLKPEDTAVYYCAADPFSGYGFQYYRGLYYWGQGTQVSVSS
polyreactivity (PSR sort gate): low polyreactivity

QVQLVESGGGLVQAGGSLRLSCAASGRTFYPYAMGWYRQAPGKERELVARISASGGSTYYADSVKGRFTISRDNAKNTVYLQMNSLKPEDTAVYYCARESFWRSLMDYWGQGTQVTVSS
polyreactivity (PSR sort gate): high polyreactivity

QVQLVESGGGLVQAGGSLRLSCAASGRTFSVYALGWYRPAPGKERELVAGITSGGSTNYADSVKGRFTMSRDNAKNTVYLQMNILKPEDTADYSCASENVYAVFLFVSIGDYWGQGTQETVSS
polyreactivity (PSR sort gate): low polyreactivity

QVQLVESGGGLVQPGGSLRLSCAASGYTFWQYAMGWYRQAPGKERELVAAISGSGGRTYYADSVKGRFTISRDNAKNTVYLQMNSLKPEDTAVYYCAAPYLRYYLGWYDYWGQGTQVTVSS
polyreactivity (PSR sort gate): high polyreactivity

QVQLVESGGGLVQAGGRLRLTCSASGFIIRFYAMGWYRQATGKEREFVASISRRAGRTYYADSVKGRFTISRDNAKNTVYLQMNSLKPEDTAVFYCAASGFGSFRYSSTYDYWGQGSQVTVSS
polyreactivity (PSR sort gate): high polyreactivity

QVQLVESGGGLVQAGGSLRISCAASGRIFGINSMGWYRQAPAKERELVAAMSRGGTTNYADSVKGRFTISRDNAKNTVYLQMNSLKPEDTAVYYCNAVGFYAPNTFDYWGQGTQVTVSS
polyreactivity (PSR sort gate): high polyreactivity

QVKLVETGGGLVQAGGSLRLSSAASGTTFVHYDMGWYRQAPGNERELVAAISRSGASTYYADSVKGRFTISRDHAKNTVYLQMNSLKPDDTAVYYCATIKYYGRRFNYWGQGTQVTVSS
polyreactivity (PSR sort gate): high polyreactivity

QVQLVESGGGLVQAGGSLRLSCAASGRTFTPNGMGWYRQAPGKERELVAAITYGGGITDYADSVKGRFTTSRDNAKNTVYLQMNSLKPEDTAVYYCAATTLSFEGGKYWSKYDYWGQGTQVTVSS
polyreactivity (PSR sort gate): low polyreactivity

QVQLVESGGGLVQSGGSLRLTCAASGYIFGYYTMGWYRQAPGKERELVATIRSGGSTYYADSVKGRFTISRDNAKNTVFLHMNSLKAEDTAVYYCAIRVRRISEYGYWGQGTQVTVSS
polyreactivity (PSR sort gate): high polyreactivity

QVQLEESGGGLVQAGGSLRLSCAASGSTFNYYAMGWYRTATGKERELVAAITGSGTSTYYADSVKGRFTISRDNAKNTVYLQMNSLKPEDTAVYYCNARYRPRQRPEGGYWGQGTQVTVSS
polyreactivity (PSR sort gate): high polyreactivity

QVQLVESGGGLVQAGGSLRLSCAASGSIFRSYAMGWYRQAPGKERELVAAISWRGGRTYYADSVKGRFTISRDNAKNTVYLQMNSLKPEDTAVYYCAVDFYVYRWSPYGDVYRYDYWGQGTQVTVSS
polyreactivity (PSR sort gate): high polyreactivity

QVQLVESGGGLVQAGGSLRISCAASGSTFWYYAMGWYRQAPGKERELVAVINSGGITNYADSVKGRFTISRDNAKNTVYLQMNSLKPEDTAVYYCNKRLYWGYGEMDYWGQGTQVTVSS
polyreactivity (PSR sort gate): low polyreactivity

QVQLVESGGGLVQAGGSLRLSCAASGSIFQQYDRGWYRQAPGKDREFVAAISSSGGSTYYADSVKGRFTISRDNAKNTDYLQMKSLKAEDSAVYYCAVDTIGYTYVDYLHGSGEFGYWGQGTQVTVSS
polyreactivity (PSR sort gate): low polyreactivity

QVHLVESGGGLVQAGGSLRLSCAASGNIFGLYAMGWYRQAPWKERELVAAISWRGGNTYYADYVKGRFTISRDNAKNTVYLQMNSLKPEDTAVYYCAAEAGYWYDYWGQGTQVTVSS
polyreactivity (PSR sort gate): high polyreactivity

QVQLVESGGGLVQAGGSLRLSCAASGRTFFRNAMGWYRQAPGKERELVAAISKRGGSTRYADSVKGRFTISRDNAKNTAYLQMNSLQPEDTAVYYCAADSRLEYSHATLYYCGQGTQVTVSS
polyreactivity (PSR sort gate): high polyreactivity

QVQLVESGGGLVQAGGSLRLSCAASGSILYIYAMGWYRQAPGKERELVASINSGGSTYYADSVKGRFTISRDNAKNTVYLHMYSLKPEDTGVYYCAKQGVDYWGQGTQVTVSS
polyreactivity (PSR sort gate): low polyreactivity

QVQLVESGGGLVQAGGSLRLSCAASGSIFYLYAMGWYRQAPGKESELVAAITSGDSTTYADSVKWRFTISRDYAKNTVYLQMNSLKPEDTAVYYCAADWPGLVGYHNSAENDYWGQGTQVTVSS
polyreactivity (PSR sort gate): low polyreactivity

QVQLVESGGGLVQAGGSLRLSCAASGSTFFLYAMGWYRQAPGKERELVAAITWRSGRTYYADSVKGRFTISRDNAKNTVYLQMNSLKPEDTAVYYCAADYVLGEVVRYDYWGQGTQVTVSS
polyreactivity (PSR sort gate): high polyreactivity

QVQLVESGGGLVQAGGSLRLSCAASGSILIPNAMGWYRQAPGKERELVASISKSGGSTYYADSVKGRFTISRDNAKNTVYLPKNSLKPEDTAVYYCAAAFVSVRKRYGYWGQGTQVTVSS
polyreactivity (PSR sort gate): high polyreactivity

QVQLVESGGGLVQAGGSLRLSCAASGRILGSYAMGWYRQAPGKERELVAAISSGARTNYADSVKGRFTISRDHAKNTVYLQMNCLKPEDTAVYYCAAATYNQDYSYDYWGQGTQVTVSS
polyreactivity (PSR sort gate): low polyreactivity
